# Measured values as given in patent US20230203202A1 (DRAGONFLY THERAPEUTICS, published 2023).
# Like-named read-outs stand apart in the source and are kept apart here.
# T1: human 5T4 on the cell surface (human, UniProt Q13641 32-420)
# T1 sequence (looked up): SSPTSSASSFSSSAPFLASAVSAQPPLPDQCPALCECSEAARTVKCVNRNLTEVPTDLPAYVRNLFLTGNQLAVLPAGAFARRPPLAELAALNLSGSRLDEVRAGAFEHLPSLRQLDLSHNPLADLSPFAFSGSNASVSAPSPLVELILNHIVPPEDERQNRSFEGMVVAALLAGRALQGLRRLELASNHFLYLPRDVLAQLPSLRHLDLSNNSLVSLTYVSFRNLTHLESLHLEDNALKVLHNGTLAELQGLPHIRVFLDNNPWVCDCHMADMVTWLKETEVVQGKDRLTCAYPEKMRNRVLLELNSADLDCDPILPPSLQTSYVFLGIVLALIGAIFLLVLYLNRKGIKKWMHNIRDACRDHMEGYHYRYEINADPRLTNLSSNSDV
# T2: human 5T4 (SPR and epitope mapping, construct not stated) (human, UniProt Q13641 32-355, limits assumed)
# T2 construct: also called h5T4
# T2 sequence (looked up): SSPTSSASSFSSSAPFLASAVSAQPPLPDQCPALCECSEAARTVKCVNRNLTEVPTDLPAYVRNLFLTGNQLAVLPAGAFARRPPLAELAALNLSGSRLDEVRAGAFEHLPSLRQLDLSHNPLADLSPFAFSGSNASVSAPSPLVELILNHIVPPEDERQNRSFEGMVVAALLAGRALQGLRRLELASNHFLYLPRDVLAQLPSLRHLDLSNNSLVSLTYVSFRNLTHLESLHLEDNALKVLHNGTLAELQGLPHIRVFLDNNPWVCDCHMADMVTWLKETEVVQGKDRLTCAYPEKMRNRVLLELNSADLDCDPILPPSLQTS
# T3: human NKG2D on CD8+ T cells (human, UniProt P26718 1-216)
# T3 sequence (looked up): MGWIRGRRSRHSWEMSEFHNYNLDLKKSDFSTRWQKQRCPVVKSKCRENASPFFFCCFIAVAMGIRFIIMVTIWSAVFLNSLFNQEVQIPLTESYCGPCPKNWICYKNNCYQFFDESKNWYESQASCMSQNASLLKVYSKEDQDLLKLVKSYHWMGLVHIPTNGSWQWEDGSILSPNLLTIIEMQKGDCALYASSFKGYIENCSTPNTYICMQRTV
# B1: AB1310/AB1783-TriNKET® (bispecific antibody, human IgG1, kappa)
# chain: DIQLTQSPSSLSASVGDRVTITCRASQSVTTSNYNYMHWFQQKPGKAPKLLIKFASNLESGVPSRFSGSGSGTDFTLTISSLQPEDFATYYCQHSWEIPWTFGCGTKVEIKGGGGSGGGGSGGGGSGGGGSEVQLVESGGGLVKPGGSLRLSCAASRFTFSDFGMHWVRQAPGKCLEWVSYISSGSSTIYYADSVKGRFTISRDNAKNSLYLQMNSLRAEDTAVYYCASSQSYYRGTLDYWGQGTTVTVSSASDKTHTCPPCPAPELLGGPSVFLFPPKPKDTLMISRTPEVTCVVVDVSHEDPEVKFNWYVDGVEVHNAKTKPREEQYNSTYRVVSVLTVLHQDWLNGKEYKCKVSNKALPAPIEKTISKAKGQPREPRVYTLPPCRDELTKNQVSLTCLVKGFYPSDIAVEWESNGQPENNYKTTPPVLVSDGSFTLYSKLTVDKSRWQQGNVFSCSVMHEALHNHYTQKSLSLSPG
# heavy: EVQLVESGGGLVKPGGSLRLSCAASGFTFSSYSMNWVRQAPGKGLEWVSSISSSSSYIYYADSVKGRFTISRDNAKNSLYLQMNSLRAEDTAVYYCARGAPIGAAAGWFDPWGQGTLVTVSSASTKGPSVFPLAPSSKSTSGGTAALGCLVKDYFPEPVTVSWNSGALTSGVHTFPAVLQSSGLYSLSSVVTVPSSSLGTQTYICNVNHKPSNTKVDKKVEPKSCDKTHTCPPCPAPELLGGPSVFLFPPKPKDTLMISRTPEVTCVVVDVSHEDPEVKFNWYVDGVEVHNAKTKPREEQYNSTYRVVSVLTVLHQDWLNGKEYKCKVSNKALPAPIEKTISKAKGQPREPQVCTLPPSRDELTENQVSLTCLVKGFYPSDIAVEWESNGQPENNYKTTPPVLDSDGSFFLYSWLTVDKSRWQQGNVFSCSVMHEALHNHYTQKSLSLSPG
# light: DIQMTQSPSSVSASVGDRVTITCRASQGISSWLAWYQQKPGKAPKLLIYAASSLQSGVPSRFSGSGSGTDFTLTISSLQPEDFATYYCQQGVSFPRTFGGGTKVEIKRTVAAPSVFIFPPSDEQLKSGTASVVCLLNNFYPREAKVQWKVDNALQSGNSQESVTEQDSKDSTYSLSSTLTLSKADYEKHKVYACEVTHQGLSSPVTKSFNRGEC
# notes: also called AB1310-TriNKET®; AB1783 10F10 F3′ LH H(T62S) CHO opt
# Tests used:
# [1] = target: T1, human 5T4 on the cell surface; assay: cell-based or functional assay
# [2] = target: T2, human 5T4 (SPR and epitope mapping, …); assay: SPR, h5T4 binding; control sample, HST pH 6, 7 days 4 °C
# [3] = target: T1, human 5T4 on the cell surface; assay: cell binding assay on 5T4-expressing tumor cells (cell line not given)
# [4] = target: T2, human 5T4 (SPR and epitope mapping, …); assay: SPR, h5T4 binding; sample stressed in HST pH 6, 7 days 50 °C
# [5] = target: T1, human 5T4 on the cell surface; assay: flow cytometry on H1703 cells (15,000 5T4 per cell)
# [6] = target: T1, human 5T4 on the cell surface; assay: flow cytometry on H292 cells (11,000 5T4/cell), fold over background
# Description: (§1) The KYSE-30 and H292 human cancer cell lines, derived from esophageal squamous cell carcinoma and non-small cell lung carcinoma, respectively, were used. […] After incubation, binding patterns of the TriNKET® and mAb to 5T4+ cells were detected using a fluorophore conjugated anti-human IgG secondary antibody. Cells were analyzed by flow cytometry and fold MFI over secondary-only controls reported.
# [7] = target: T3, human NKG2D on CD8+ T cells; assay: cell-based or functional assay
# [8] = target: T1, human 5T4 on the cell surface; assay: flow cytometry on BT474 cells (20,000 5T4 per cell)
# [9] = target: T1, human 5T4 on the cell surface; assay: flow cytometry on HCC4006 cells (53,000 5T4 per cell)
# [10] = target: T2, human 5T4 (SPR and epitope mapping, …); assay: SPR, h5T4 binding; sample stressed in acetate pH 4, 7 days 40 °C
# [11] = target: T1, human 5T4 on the cell surface; assay: cell-based or functional assay; remark: listed apart in the source
# [12] = target: T1, human 5T4 on the cell surface; assay: flow cytometry on 786-O cells (18,000 5T4 per cell)
# [13] = target: T1, human 5T4 on the cell surface; assay: cell-based or functional assay; remark: listed apart in the source
# [14] = target: T1, human 5T4 on the cell surface; assay: flow cytometry on FaDu cells (22,000 5T4 per cell)
# [15] = target: T1, human 5T4 on the cell surface; assay: flow cytometry on KYSE-30 cells (61,000 5T4 per cell)
# [16] = target: T1, human 5T4 on the cell surface; assay: flow cytometry on Detroit 562 cells (21,000 5T4 per cell)
# [17] = target: T1, human 5T4 on the cell surface; assay: cell binding assay on 5T4-expressing tumor cells (cell line not given); remark: listed apart in the source
# [18] = target: T1, human 5T4 on the cell surface; assay: flow cytometry on KYSE-30 cells (61,000 5T4/cell), fold over background
# Description: as §1
# [19] = target: T1, human 5T4 on the cell surface; assay: flow cytometry on H1975 cells (22,000 5T4 per cell)
binder,measurement,setting,value
B1,"NK cell-mediated lysis of primary CAFs, EC50 (first column pair)",[1],0.081 nM
same,"NK cell-mediated lysis of primary CAFs, EC50 (second column pair)",[1],0.19 nM
same,Kd,[2],7.8 nM
same,koff,[2],0.00091 s⁻¹
same,kon,[2],120000 M⁻¹ s⁻¹
same,EC50,[3],5.33 nM
same,Max Fold Over Background (FOB),[3],85 fold over background
same,Kd,[4],7.6 nM
same,koff,[4],0.00088 s⁻¹
same,kon,[4],110000 M⁻¹ s⁻¹
same,EC50,[5],2.6 nM
same,EC50 (read off the curve),[6],~3 nM
same,"CD8+ T-cell lysis of BT-474 cells (Incucyte, 72 h), EC50",[7],0.66 nM
same,"CD8+ T-cell lysis of FaDu cells (Incucyte, 72 h), EC50",[7],0.59 nM
same,EC50,[8],3.7 nM
same,EC50,[9],7.6 nM
same,Kd,[10],7.6 nM
same,koff,[10],0.00091 s⁻¹
same,kon,[10],120000 M⁻¹ s⁻¹
same,"ADCP of KYSE-30 cells by M0 macrophages, EC50",[11],0.089 nM
same,"ADCP of NCI-H292 cells by M0 macrophages, EC50",[11],0.15 nM
same,EC50,[12],2.7 nM
same,"long-term NK cell-mediated inhibition of HCT 116 cells (Incucyte, 72 h), EC50",[13],0.16 nM
same,"long-term NK cell-mediated inhibition of HT-29 cells (Incucyte, 72 h), EC50",[13],1.3 nM
same,"long-term NK cell-mediated inhibition of KYSE-30 cells (Incucyte, 72 h), EC50",[13],0.087 nM
same,"long-term NK cell-mediated inhibition of NCI-H292 cells (Incucyte, 72 h), EC50",[13],0.37 nM
same,EC50,[14],7.1 nM
same,EC50,[15],2.5 nM
same,EC50,[16],2.7 nM
same,EC50,[17],3.42 nM
same,Max Fold Over Background (FOB),[17],82.8 fold over background
same,EC50 (read off the curve),[18],~2 nM
same,EC50,[19],1.9 nM
